{"source": "the supplement of paper PMC9112550", "about": "“Optimization of the antimicrobial peptide Bac7 by deep mutational scanning” (BMC Biology, 2022);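 note: peptides expressed intracellularly from a pBAD plasmid library in pooled LB shake-flask culture, induced with 0.3% L-arabinose, DNA abundance read by NGS, three biological replicates, DESeq2 with apeglm shrinkage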"}
{"tested_on": "Escherichia coli TOP10", "test": "shrunken log2 fold change of peptide-encoding DNA abundance (4.5 h post-induction vs induction); higher = less antimicrobial activity (less host growth inhibition)", "conditions": "time post-induction: 4.5 h; library: site-saturation at positions 5, 18, 19, 20"}
{"sequence": "RRIRPRPPRLPRPRPRPVMGPRP", "shrunken log2 fold change": 0.149}
{"sequence": "RRIRSRPPRLPRPRPRPIQFPRP", "shrunken log2 fold change": -0.396}
{"sequence": "RRIRVRPPRLPRPRPRPKEQPRP", "shrunken log2 fold change": -0.0164}
{"sequence": "RRIRNRPPRLPRPRPRPSTLPRP", "shrunken log2 fold change": -0.474}
{"sequence": "RRIRVRPPRLPRPRPRPWFDPRP", "shrunken log2 fold change": -0.439}
{"sequence": "RRIRQRPPRLPRPRPRPNPSPRP", "shrunken log2 fold change": -0.042}
{"sequence": "RRIRVRPPRLPRPRPRPTHQPRP", "shrunken log2 fold change": 0.209}
{"sequence": "RRIRLRPPRLPRPRPRPAHGPRP", "shrunken log2 fold change": -0.0453}
{"sequence": "RRIRQRPPRLPRPRPRPVHVPRP", "shrunken log2 fold change": -0.0167}
{"sequence": "RRIRFRPPRLPRPRPRPCYNPRP", "shrunken log2 fold change": -0.255}
{"sequence": "RRIRQRPPRLPRPRPRPVDAPRP", "shrunken log2 fold change": -0.0176}
{"sequence": "RRIRHRPPRLPRPRPRPKCEPRP", "shrunken log2 fold change": -0.148}
{"sequence": "RRIRHRPPRLPRPRPRPQMPPRP", "shrunken log2 fold change": -0.232}
{"sequence": "RRIRMRPPRLPRPRPRPVESPRP", "shrunken log2 fold change": 0.00581}
{"sequence": "RRIRPRPPRLPRPRPRPHVCPRP", "shrunken log2 fold change": 0.171}
{"sequence": "RRIRHRPPRLPRPRPRPADWPRP", "shrunken log2 fold change": 0.0838}
{"sequence": "RRIRSRPPRLPRPRPRPPMGPRP", "shrunken log2 fold change": -0.0142}
{"sequence": "RRIRNRPPRLPRPRPRPAERPRP", "shrunken log2 fold change": -0.117}
{"sequence": "RRIRKRPPRLPRPRPRPGQNPRP", "shrunken log2 fold change": 0.0264}
{"sequence": "RRIRCRPPRLPRPRPRPLPCPRP", "shrunken log2 fold change": 0.0339}
{"sequence": "RRIRARPPRLPRPRPRPYPKPRP", "shrunken log2 fold change": -0.149}
{"sequence": "RRIRERPPRLPRPRPRPFVSPRP", "shrunken log2 fold change": 0.176}
{"sequence": "RRIRTRPPRLPRPRPRPIFMPRP", "shrunken log2 fold change": 0.0645}
{"sequence": "RRIRARPPRLPRPRPRPNGCPRP", "shrunken log2 fold change": -0.0858}
{"sequence": "RRIRARPPRLPRPRPRPPPRPRP", "shrunken log2 fold change": 1.56}
{"sequence": "RRIRTRPPRLPRPRPRPNDNPRP", "shrunken log2 fold change": -0.739}
{"sequence": "RRIRHRPPRLPRPRPRPNKDPRP", "shrunken log2 fold change": -0.507}
{"sequence": "RRIRKRPPRLPRPRPRPRFLPRP", "shrunken log2 fold change": 0.101}
{"sequence": "RRIRCRPPRLPRPRPRPWDDPRP", "shrunken log2 fold change": 0.0755}
{"sequence": "RRIRHRPPRLPRPRPRPRSWPRP", "shrunken log2 fold change": 0.129}
{"sequence": "RRIRTRPPRLPRPRPRPGQAPRP", "shrunken log2 fold change": -0.228}
{"sequence": "RRIRRRPPRLPRPRPRPNKHPRP", "shrunken log2 fold change": 0.117}
{"sequence": "RRIRRRPPRLPRPRPRPLHEPRP", "shrunken log2 fold change": -0.0162}
{"sequence": "RRIRQRPPRLPRPRPRPQNAPRP", "shrunken log2 fold change": -0.198}
{"sequence": "RRIRDRPPRLPRPRPRPAEMPRP", "shrunken log2 fold change": 0.515}
{"sequence": "RRIRKRPPRLPRPRPRPSGIPRP", "shrunken log2 fold change": 0.149}
{"sequence": "RRIRGRPPRLPRPRPRPTNQPRP", "shrunken log2 fold change": 0.579}
{"sequence": "RRIRFRPPRLPRPRPRPRPAPRP", "shrunken log2 fold change": 0.807}
{"sequence": "RRIRTRPPRLPRPRPRPPALPRP", "shrunken log2 fold change": 0.311}
{"sequence": "RRIRVRPPRLPRPRPRPFHMPRP", "shrunken log2 fold change": -0.54}
{"sequence": "RRIRDRPPRLPRPRPRPICYPRP", "shrunken log2 fold change": 0.204}
{"sequence": "RRIRFRPPRLPRPRPRPYGLPRP", "shrunken log2 fold change": -0.521}
{"sequence": "RRIRKRPPRLPRPRPRPNGNPRP", "shrunken log2 fold change": -0.146}
{"sequence": "RRIRERPPRLPRPRPRPQQNPRP", "shrunken log2 fold change": -0.122}
{"sequence": "RRIRGRPPRLPRPRPRPQFRPRP", "shrunken log2 fold change": 0.0341}
{"sequence": "RRIRFRPPRLPRPRPRPPAMPRP", "shrunken log2 fold change": 0.775}
{"sequence": "RRIRWRPPRLPRPRPRPKAKPRP", "shrunken log2 fold change": 0.166}
{"sequence": "RRIRNRPPRLPRPRPRPCGNPRP", "shrunken log2 fold change": -0.0905}
{"sequence": "RRIRERPPRLPRPRPRPCKFPRP", "shrunken log2 fold change": -0.214}
{"sequence": "RRIRGRPPRLPRPRPRPKLMPRP", "shrunken log2 fold change": 1}
{"sequence": "RRIRQRPPRLPRPRPRPHTTPRP", "shrunken log2 fold change": 0.182}
{"sequence": "RRIRARPPRLPRPRPRPDLMPRP", "shrunken log2 fold change": 0.354}
{"sequence": "RRIRPRPPRLPRPRPRPLSVPRP", "shrunken log2 fold change": -0.121}
{"sequence": "RRIRQRPPRLPRPRPRPHSKPRP", "shrunken log2 fold change": -0.328}
{"sequence": "RRIRSRPPRLPRPRPRPCAAPRP", "shrunken log2 fold change": 0.312}
{"sequence": "RRIRPRPPRLPRPRPRPSSQPRP", "shrunken log2 fold change": -0.201}
{"sequence": "RRIRIRPPRLPRPRPRPVFCPRP", "shrunken log2 fold change": -0.321}
{"sequence": "RRIRFRPPRLPRPRPRPMEIPRP", "shrunken log2 fold change": -0.298}
{"sequence": "RRIRPRPPRLPRPRPRPAPRPRP", "shrunken log2 fold change": 0.992}
{"sequence": "RRIRYRPPRLPRPRPRPYAGPRP", "shrunken log2 fold change": -0.00131}
{"sequence": "RRIRKRPPRLPRPRPRPRDTPRP", "shrunken log2 fold change": 0.258}
{"sequence": "RRIRQRPPRLPRPRPRPLSCPRP", "shrunken log2 fold change": -0.242}
{"sequence": "RRIRFRPPRLPRPRPRPRDLPRP", "shrunken log2 fold change": -0.00831}
{"sequence": "RRIRDRPPRLPRPRPRPSCKPRP", "shrunken log2 fold change": -0.1}
{"sequence": "RRIRIRPPRLPRPRPRPWDKPRP", "shrunken log2 fold change": -0.0749}
{"sequence": "RRIRCRPPRLPRPRPRPFTPPRP", "shrunken log2 fold change": -0.497}
{"sequence": "RRIRQRPPRLPRPRPRPECPPRP", "shrunken log2 fold change": 0.184}
{"sequence": "RRIRGRPPRLPRPRPRPHLLPRP", "shrunken log2 fold change": 0.306}
{"sequence": "RRIRMRPPRLPRPRPRPYWQPRP", "shrunken log2 fold change": -0.312}
{"sequence": "RRIRGRPPRLPRPRPRPFDDPRP", "shrunken log2 fold change": 0.0195}
{"sequence": "RRIRYRPPRLPRPRPRPVVKPRP", "shrunken log2 fold change": -0.0513}
{"sequence": "RRIRVRPPRLPRPRPRPQARPRP", "shrunken log2 fold change": -0.109}
{"sequence": "RRIRIRPPRLPRPRPRPSAWPRP", "shrunken log2 fold change": 0.0616}
{"sequence": "RRIRFRPPRLPRPRPRPGSNPRP", "shrunken log2 fold change": -0.624}
{"sequence": "RRIRRRPPRLPRPRPRPSPCPRP", "shrunken log2 fold change": 0.155}
